Test [1] deals with T1, recombinant human CD79b extracellular domain protein (human, UniProt P40259 29-159).
T1 construct: Bought protein; also called CD79b ECD; human CD79b-ECD
T1 sequence: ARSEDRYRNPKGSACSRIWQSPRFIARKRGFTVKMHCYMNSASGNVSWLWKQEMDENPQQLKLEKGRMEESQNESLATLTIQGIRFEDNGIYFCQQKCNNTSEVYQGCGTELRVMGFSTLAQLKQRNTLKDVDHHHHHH
The test is described as follows: ELISA, plate coated with human CD79b-ECD. How it is done:
(§1) The experimental procedure was as follows: 96-well plates (Corning, CAT #9018) were coated with 100 μL/well of antigen (human CD79b-ECD, novoprotein, CA29) at 1 μg/mL in PBS (10 mM phosphate, 138 mM NaCl, pH 7.2) at 4° C. overnight, and then blocked with 250 ul/well of blocking solution (PBS+1% BSA (Sangon, CAT #A0332)) for one to three hours at 25° C. Plates were washed 3 times with a washing solution (PBS+0.05% Tween-20 (Sangon, CAT #TB0560)), and then incubated with 100 μL of anti-CD79b antibody in serial dilutions in blocking solution in duplicate wells at 25° C. for 2 h. Plates were washed 3 times with washing solution and then incubated with 100 μL of 1:10,000 the secondary antibody (anti-mouse IgG (Fc)-HRP, Sigma, CAT #A00168 or anti-human IgG F(ab′)2-HRP, Sigma, CAT #A0293) at 25° C. for 1 h. Plates were washed 3 times with washing solution, and then 100 μL of TMB (Sangon, CAT #TB0954) was added to each well and incubated at 25° C. until color developed (approximately 15 min). Reactions were stopped by addition of 100 μl/well stop solution (1N H2SO4). OD450/630 nm was read on plate reader in 10 minutes.
The in vitro binding activity of the anti-CD79b humanized antibody to the extracellular domain of human CD79b was examined by ELISA as described in Section 1 of the Materials and Methods section.
(In general: In an ELISA, binding on a coated surface is turned into a signal by an enzyme label.)

Test [2] addresses T1, recombinant human CD79b extracellular …. The test can be described thus: SPR (Biacore T200), antibody on CM5 chip, CD79b ECD as analyte, 25 C. How it is done:
The assay was performed on a Biacore T200 (GE) machine, and the antibody to be tested was diluted to 10 ug/ml with HBS-EP (GE, BR100826) buffer according to the instruction of Amine-Coupling Kit (GE, BR-1000-50). The antibody to be tested was immobilized on a CM5 chip (GE, BR-1006-68) at a fixing time of 300 sec and a flow rate of 10 ul/min. Different concentrations (0.25 nm, 0.5 nm, 1 nm, 2 nm, 4 nm, 8 (×2) nm, 16 nm) of the recombinant CD79b extracellular domain protein diluted with HBS buffer gradient was subjected to capture reaction by Kinetics program, with the binding time of the antigen-antibody set to 300 seconds, dissociation time set to 900 seconds, flow rate of the antigenic protein to 30 ul/min. The dissociation curves were fitted to calculate the KD values of the different antibodies. The above experiments were all carried out at 25° C.
The affinity of the antibody after humanization was tested by the method described in Section 4 of the “Materials and Methods” section.

For test [3] the target is unchanged. The test can be described thus: indirect ELISA, plate coated with CD79b antigen. The method, then: An ELISA anti-antibody was added to bind with the antibody or ADC antibody bound to the solid phase antigen, and unbound anti-antibody was removed by washing. Substrate solution was added, and then the optical density (OD) value at 450 nm/630 nm was read with a microplate reader T, based on which a curve was plotted, and the EC₅₀ was calculated.

Test [4] addresses T2, CD79b on the surface of human lymphoma cell lines (human, UniProt P40259 29-229).
T2 sequence (looked up): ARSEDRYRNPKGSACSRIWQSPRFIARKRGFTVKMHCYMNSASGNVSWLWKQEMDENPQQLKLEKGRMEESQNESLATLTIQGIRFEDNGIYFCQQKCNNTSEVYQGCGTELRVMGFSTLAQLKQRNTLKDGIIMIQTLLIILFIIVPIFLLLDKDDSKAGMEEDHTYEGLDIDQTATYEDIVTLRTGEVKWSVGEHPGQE
The test is described as follows: cell-based or functional assay.

Test [5] deals with T2, CD79b on the surface of human lymphoma …. The test is described as follows: cell-based or functional assay. This is another data set of the same source.
The target is the same in test [6]. The test can be described thus: cell-based or functional assay. The source holds these as a separate data set.
In test [7] the target is T1, recombinant human CD79b extracellular …. The test can be described thus: ELISA, plate coated with human CD79b-ECD. The method, then:
as §1
This is another data set of the same source.

B1: Humanized antibody AS11259 (antibody, human IgG1, kappa)
heavy: not shown
light: DVVMTQSPLSLPVTLGQPASISCRSSQNIVHSDGNTYLEWYQQRPGQSPRLLIYKVSFRLSGVPDRFSGSGSGTDFTLKISRVEAEDVGVYYCFQGSHVPWTFGGGTKVEIKRTVAAPSVFIFPPSDEQLKSGTASVVCLLNNFYPREAKVQWKVDNALQSGNSQESVTEQDSKDSTYSLSSTLTLSKADYEKHKVYACEVTHQGLSSPVTKSFNRGEC
notes: Humanized IgG1 / kappa; also called naked antibody AS11259
Take B1: the EC50 in test [1] came out at 0.0583 µg/mL. In addition, in test [2], the Kd is 0.0216 nM, the koff was 3.63e-05 s⁻¹ and the on-rate constant (kon) was 1.68e+06 M⁻¹ s⁻¹. For the same molecule, the EC50 in test [3] came to 0.0178 µg/mL.

B2: Humanized antibody AS11164 (antibody, human IgG1, kappa, V domains shown)
VH: QVQLVQSGAEVKKPGSSVKVSCKTSGNTFTSYGINWVRQAPGQGLEWMGEIFPRSGNIYYNEKFKGKVTITADKSTSTAYMELSSLRSEDTAVYYCAKGGTGDFDYWGQGTLVTVSS
VL: DVLMTQSPLSLPVTLGQPASISCRSSQNIVHSDGNTYLEWYQQRPGQSPKLLIYKVSFRLSGVPDRFSGSGSGTDFTLKISRVEAEDVGVYYCFQGSHVPWTFGGGTKVEIKR
notes: Humanized IgG1 / kappa
As to B2, in test [1], the half-maximal effective concentration (EC50) was found to be 0.064 µg/mL. In test [2], the dissociation constant Kd turned out to be 0.0128 nM, the koff turned out to be 2.44e-05 s⁻¹ and the kon is 1.91e+06 M⁻¹ s⁻¹.

B3: Humanized antibody AS11252 (antibody, human IgG1, kappa)
heavy: not shown
light: DVVMTQSPLSLPVTLGQPASISCRSSQNIVHSDGNTYLEWYQQRPGQSPRLLIYKVSFRLSGVPDRFSGSGSGTDFTLKISRVEAEDVGVYYCFQGSHVPWTFGGGTKVEIKRTVAAPSVFIFPPSDEQLKSGTASVVCLLNNFYPREAKVQWKVDNALQSGNSQESVTEQDSKDSTYSLSSTLTLSKADYEKHKVYACEVTHQGLSSPVTKSFNRGEC
notes: Humanized IgG1 / kappa
With B3, the half-maximal effective concentration (EC50) in test [1] amounted to 0.0499 µg/mL. For the same molecule, in test [2], the dissociation constant (Kd) amounted to 0.0285 nM, the koff came out at 4.22e-05 s⁻¹ and the on-rate (kon) was 1.48e+06 M⁻¹ s⁻¹.

B4: Humanized antibody AS11161 (antibody, human IgG1, kappa, V domains shown)
VH: QVQLVQSGAEVKKPGSSVKVSCKTSGNTFTSYGINWVRQAPGQGLEWMGEIFPRSGNIYYNEKFKGKVTITADKSTSTAYMELSSLRSEDTAVYYCAKGGTGDFDYWGQGTLVTVSS
VL: DVVMTQSPLSLPVTLGQPASISCRSSQNIVHSDGNTYLEWYQQRPGQSPRLLIYKVSFRLSGVPDRFSGSGSGTDFTLKISRVEAEDVGVYYCFQGSHVPWTFGGGTKVEIKR
notes: Humanized IgG1 / kappa
As for B4, the concentration giving a half-maximal response (EC50) in test [1] was 0.0431 µg/mL. Also, in test [2], the Kd was 0.014 nM, the dissociation rate constant (koff) amounted to 2.84e-05 s⁻¹ and the on-rate (kon) was found to be 2.02e+06 M⁻¹ s⁻¹.

B5: Humanized antibody AS11254 (antibody, human IgG1, kappa, V domains shown)
VH: QVQLVQSGAEVKKPGASVKVSCKTSGNTFTSYGINWVKQAPGQGLEWMGEIFPRSGNIYYNEKFKGRVTITADKSTSTAYMELSSLRSEDTAVYYCAKGGTGDFDYWGQGTLVTVSS
VL: DVVMTQSPLSLPVTLGQPASISCRSSQNIVHSDGNTYLEWYQQRPGQSPRLLIYKVSFRLSGVPDRFSGSGSGTDFTLKISRVEAEDVGVYYCFQGSHVPWTFGGGTKVEIKR
notes: Humanized IgG1 / kappa
In the case of B5, the EC50 in test [1] stood at 0.0501 µg/mL. In test [2], the Kd was found to be 0.0187 nM, the koff was 2.87e-05 s⁻¹ and the kon is 1.53e+06 M⁻¹ s⁻¹.

B6: recombinant chimeric antibody 104E1 conjugated to BMP-vcMMAE (other)
VH: QVQLQQSGSELARPGASVKLSCKTSGNTFTSYGINWVKQRTGQGLEWIGEIFPRSGNIYYNEKFKGKATLTADKSSSTAYMELRSLTSEDSAVYFCAKGGTGDFDYWGQGTTLTVSS
VL: DVLMTQTPLSLPVSLGDQASISCRSSQNIVHSDGNTYLEWYLQKPGQSPKLLIYKVSFRLSGVPDRFSGSGSGTDFTLKIRRVEAEDLGTYYCFQGSHVPWTFGGGTKLEIK
modifications: antibody conjugated to BMP-vcMMAE (linker-drug 1); positions not given
Turning to B6, in test [4], the “Inhibitory effect on the lymphoma cell proliferation IC50, BJAB” value came out at 0.00881 µg/mL; the “Inhibitory effect on the lymphoma cell proliferation IC50, DoHH2” value amounted to 0.00426 µg/mL; the “Inhibitory effect on the lymphoma cell proliferation IC50, Granta-519” value stood at 0.0296 µg/mL; the “Inhibitory effect on the lymphoma cell proliferation IC50, Ramos” value worked out at 0.00442 µg/mL. For the same molecule, in test [4], the “Inhibitory effect on the lymphoma cell proliferation IC50, SU_DHL-4” value was found to be 0.00946 µg/mL; the “Inhibitory effect on the lymphoma cell proliferation IC50, U-698-M” value was 0.0159 µg/mL; the “Inhibitory effect on the lymphoma cell proliferation IC50, WSU-DLCL2” value was found to be 0.0168 µg/mL. In test [5], the “Inhibitory activity on lymphoma cell proliferation IC50, BJAB” value is 0.0104 µg/mL; the “Inhibitory activity on lymphoma cell proliferation IC50, DoHH2” value was determined as 0.00575 µg/mL; the “Inhibitory activity on lymphoma cell proliferation IC50, Granta-519” value turned out to be 0.0208 µg/mL; the “Inhibitory activity on lymphoma cell proliferation IC50, Ramos” value was 0.00602 µg/mL. Also, in test [5], the “Inhibitory activity on lymphoma cell proliferation IC50, SU-DHL-4” value worked out at 0.0119 µg/mL; the “Inhibitory activity on lymphoma cell proliferation IC50, U-698-M” value turned out to be 0.00952 µg/mL; the “Inhibitory activity on lymphoma cell proliferation IC50, WSU-DLCL2” value stood at 0.0182 µg/mL.

B7: recombinant human-mouse chimeric antibody 104E1 (antibody, V domains shown)
VH: QVQLQQSGSELARPGASVKLSCKTSGNTFTSYGINWVKQRTGQGLEWIGEIFPRSGNIYYNEKFKGKATLTADKSSSTAYMELRSLTSEDSAVYFCAKGGTGDFDYWGQGTTLTVSS
VL: DVLMTQTPLSLPVSLGDQASISCRSSQNIVHSDGNTYLEWYLQKPGQSPKLLIYKVSFRLSGVPDRFSGSGSGTDFTLKIRRVEAEDLGTYYCFQGSHVPWTFGGGTKLEIK
notes: also called chimeric 104E1
As to B7, in test [2], the Kd is 0.0341 nM, the off-rate (koff) was 5.52e-05 s⁻¹ and the kon came to 1.62e+06 M⁻¹ s⁻¹.

B8: murine anti-CD79b monoclonal antibody 104E1 (antibody, V domains shown)
VH: QVQLQQSGSELARPGASVKLSCKTSGNTFTSYGINWVKQRTGQGLEWIGEIFPRSGNIYYNEKFKGKATLTADKSSSTAYMELRSLTSEDSAVYFCAKGGTGDFDYWGQGTTLTVSS
VL: DVLMTQTPLSLPVSLGDQASISCRSSQNIVHSDGNTYLEWYLQKPGQSPKLLIYKVSFRLSGVPDRFSGSGSGTDFTLKIRRVEAEDLGTYYCFQGSHVPWTFGGGTKLEIK
notes: Mouse hybridoma antibody, tested as supernatant; also called murine antibody 104E1
For the molecule B8, in test [6], the “IC50 against BJAB (secondary ADC assay with HB58-ADC)” value stood at 0.0093 µg/mL. For the same molecule, in test [7], the EC50 was 0.0149 µg/mL.

The EC50 is the concentration giving half of the maximal effect. By Kd is commonly meant the constant that tells how readily two partners part at equilibrium. One may read the koff as the first-order rate constant of dissociation. The kon is the rate constant with which the complex forms.

For the origin of these results see patent US20210388082A1 (NEWBIO THERAPEUTICS, published 2021).
